According to patent US20150337049A1 (Genmab, published 2015):

Target: T1, HER2 on HER2-positive AU565 cells (human, UniProt P04626 23-1255)
T1 construct: whole, on cells
Test: FACS, AU565 cells
Experimental: Cells (1×10^5 cells/well) were incubated in polystyrene 96-well round-bottom plates (Greiner bio-one 650101) with serial dilutions of antibody preparations (range 2 to 10000 ng/mL in 4-fold dilutions for Jurkat cells and range 1 to 3000 ng/mL in 4-fold dilutions for on AU565 cells) in 100 μL PBS/0.1% BSA/0.02% azide at 4° C. for 30 min.
After washing twice in PBS/0.1% BSA/0.02% azide, cells were incubated in 100 μL with secondary antibody at 4° C. for 30 min. As a secondary antibody, R-Phycoerythrin (PE)-conjugated goat-anti-human IgG F(ab′)₂ (109-116-098, Jackson ImmunoResearch Laboratories, Inc., West Grove, Pa.) diluted 1/100 in PBS/0.1% BSA/0.02% azide, was used for all experiments. Next, cells were washed twice in PBS/0.1% BSA/0.02% azide, resuspended in 150 μL PBS/0.1% BSA/0.02% azide and analyzed on a FACS CantoII (BD Biosciences). Binding curves were analyzed using non-linear regression (sigmoidal dose-response with variable slope) using GraphPad Prism V5.04 software (GraphPad Software, San Diego, Calif., USA).

| binding result | Binder |
| --- | --- |
| binds | IgG1-HER2 (IgG1-HER2-169-K409R), wild-type Fc (antibody) heavy: not shown VL: EIVLTQSPATLSLSPGERATLSCRASQSVSSYLAWYQQKPGQAPRLLIYDASNRATGIPARFSGSGSGTDFTLTISSLEPEDFAVYYCQQRSNWPRTFGQGTKVEIK |
| binds | IgG1-HER2-DAPS (IgG1-HER2-169-K409R with D265A/P331S) (antibody, IgG1, K409R) heavy: QVQLVQSGAEVKKPGASVKVSCKASGYTFTNYGISWVRQAPGQGLEWMGWLSAYSGNTIYAQKLQGRVTMTTDTSTTTAYMELRSLRSDDTAVYYCARDRIVVRPDYFDYWGQGTLVTVSSASTKGPSVFPLAPSSKSTSGGTAALGCLVKDYFPEPVTVSWNSGALTSGVHTFPAVLQSSGLYSLSSVVTVPSSSLGTQTYICNVNHKPSNTKVDKRVEPKSCDKTHTCPPCPAPELLGGPSVFLFPPKPKDTLMISRTPEVTCVVVAVSHEDPEVKFNWYVDGVEVHNAKTKPREEQYNSTYRVVSVLTVLHQDWLNGKEYKCKVSNKALPASIEKTISKAKGQPREPQVYTLPPSREEMTKNQVSLTCLVKGFYPSDIAVEWESNGQPENNYKTTPPVLDSDGSFFLYSRLTVDKSRWQQGNVFSCSVMHEALHNHYTQKSLSLSPGK VL: EIVLTQSPATLSLSPGERATLSCRASQSVSSYLAWYQQKPGQAPRLLIYDASNRATGIPARFSGSGSGTDFTLTISSLEPEDFAVYYCQQRSNWPRTFGQGTKVEIK |
| binds | IgG1-HER2-LFLE (IgG1-HER2-169-K409R with L234F/L235E) (antibody, IgG1, K409R) heavy: QVQLVQSGAEVKKPGASVKVSCKASGYTFTNYGISWVRQAPGQGLEWMGWLSAYSGNTIYAQKLQGRVTMTTDTSTTTAYMELRSLRSDDTAVYYCARDRIVVRPDYFDYWGQGTLVTVSSASTKGPSVFPLAPSSKSTSGGTAALGCLVKDYFPEPVTVSWNSGALTSGVHTFPAVLQSSGLYSLSSVVTVPSSSLGTQTYICNVNHKPSNTKVDKRVEPKSCDKTHTCPPCPAPEFEGGPSVFLFPPKPKDTLMISRTPEVTCVVVDVSHEDPEVKFNWYVDGVEVHNAKTKPREEQYNSTYRVVSVLTVLHQDWLNGKEYKCKVSNKALPAPIEKTISKAKGQPREPQVYTLPPSREEMTKNQVSLTCLVKGFYPSDIAVEWESNGQPENNYKTTPPVLDSDGSFFLYSRLTVDKSRWQQGNVFSCSVMHEALHNHYTQKSLSLSPGK VL: EIVLTQSPATLSLSPGERATLSCRASQSVSSYLAWYQQKPGQAPRLLIYDASNRATGIPARFSGSGSGTDFTLTISSLEPEDFAVYYCQQRSNWPRTFGQGTKVEIK |
| binds | IgG1-HER2-LFLEDA (IgG1-HER2-169-K409R with L234F/L235E/D265A) (antibody, name in EU numbering, IgG1, K409R) heavy: QVQLVQSGAEVKKPGASVKVSCKASGYTFTNYGISWVRQAPGQGLEWMGWLSAYSGNTIYAQKLQGRVTMTTDTSTTTAYMELRSLRSDDTAVYYCARDRIVVRPDYFDYWGQGTLVTVSSASTKGPSVFPLAPSSKSTSGGTAALGCLVKDYFPEPVTVSWNSGALTSGVHTFPAVLQSSGLYSLSSVVTVPSSSLGTQTYICNVNHKPSNTKVDKRVEPKSCDKTHTCPPCPAPEFEGGPSVFLFPPKPKDTLMISRTPEVTCVVVAVSHEDPEVKFNWYVDGVEVHNAKTKPREEQYNSTYRVVSVLTVLHQDWLNGKEYKCKVSNKALPAPIEKTISKAKGQPREPQVYTLPPSREEMTKNQVSLTCLVKGFYPSDIAVEWESNGQPENNYKTTPPVLDSDGSFFLYSRLTVDKSRWQQGNVFSCSVMHEALHNHYTQKSLSLSPGK VL: EIVLTQSPATLSLSPGERATLSCRASQSVSSYLAWYQQKPGQAPRLLIYDASNRATGIPARFSGSGSGTDFTLTISSLEPEDFAVYYCQQRSNWPRTFGQGTKVEIK |
| binds | IgG1-HER2-DA (IgG1-HER2-169-K409R with D265A) (antibody, IgG1, K409R) heavy: not shown VL: EIVLTQSPATLSLSPGERATLSCRASQSVSSYLAWYQQKPGQAPRLLIYDASNRATGIPARFSGSGSGTDFTLTISSLEPEDFAVYYCQQRSNWPRTFGQGTKVEIK |
| binds | IgG1-HER2-N297Q (IgG1-HER2-169-K409R with N297Q) (antibody, IgG1, K409R; also called NQ) heavy: not shown VL: EIVLTQSPATLSLSPGERATLSCRASQSVSSYLAWYQQKPGQAPRLLIYDASNRATGIPARFSGSGSGTDFTLTISSLEPEDFAVYYCQQRSNWPRTFGQGTKVEIK |
| binds | IgG1-HER2-LFLENQ (IgG1-HER2-169-K409R with L234F/L235E/N297Q) (antibody, IgG1, K409R) heavy: QVQLVQSGAEVKKPGASVKVSCKASGYTFTNYGISWVRQAPGQGLEWMGWLSAYSGNTIYAQKLQGRVTMTTDTSTTTAYMELRSLRSDDTAVYYCARDRIVVRPDYFDYWGQGTLVTVSSASTKGPSVFPLAPSSKSTSGGTAALGCLVKDYFPEPVTVSWNSGALTSGVHTFPAVLQSSGLYSLSSVVTVPSSSLGTQTYICNVNHKPSNTKVDKRVEPKSCDKTHTCPPCPAPEFEGGPSVFLFPPKPKDTLMISRTPEVTCVVVDVSHEDPEVKFNWYVDGVEVHNAKTKPREEQYQSTYRVVSVLTVLHQDWLNGKEYKCKVSNKALPAPIEKTISKAKGQPREPQVYTLPPSREEMTKNQVSLTCLVKGFYPSDIAVEWESNGQPENNYKTTPPVLDSDGSFFLYSRLTVDKSRWQQGNVFSCSVMHEALHNHYTQKSLSLSPGK VL: EIVLTQSPATLSLSPGERATLSCRASQSVSSYLAWYQQKPGQAPRLLIYDASNRATGIPARFSGSGSGTDFTLTISSLEPEDFAVYYCQQRSNWPRTFGQGTKVEIK |
| binds | IgG1-HER2-DANQ (IgG1-HER2-169-K409R with D265A/N297Q) (antibody, IgG1, K409R) heavy: QVQLVQSGAEVKKPGASVKVSCKASGYTFTNYGISWVRQAPGQGLEWMGWLSAYSGNTIYAQKLQGRVTMTTDTSTTTAYMELRSLRSDDTAVYYCARDRIVVRPDYFDYWGQGTLVTVSSASTKGPSVFPLAPSSKSTSGGTAALGCLVKDYFPEPVTVSWNSGALTSGVHTFPAVLQSSGLYSLSSVVTVPSSSLGTQTYICNVNHKPSNTKVDKRVEPKSCDKTHTCPPCPAPELLGGPSVFLFPPKPKDTLMISRTPEVTCVVVAVSHEDPEVKFNWYVDGVEVHNAKTKPREEQYQSTYRVVSVLTVLHQDWLNGKEYKCKVSNKALPAPIEKTISKAKGQPREPQVYTLPPSREEMTKNQVSLTCLVKGFYPSDIAVEWESNGQPENNYKTTPPVLDSDGSFFLYSRLTVDKSRWQQGNVFSCSVMHEALHNHYTQKSLSLSPGK VL: EIVLTQSPATLSLSPGERATLSCRASQSVSSYLAWYQQKPGQAPRLLIYDASNRATGIPARFSGSGSGTDFTLTISSLEPEDFAVYYCQQRSNWPRTFGQGTKVEIK |
| binds | IgG1-HER2-LFLEPS (IgG1-HER2-169-K409R with L234F/L235E/P331S) (antibody, IgG1, K409R) heavy: QVQLVQSGAEVKKPGASVKVSCKASGYTFTNYGISWVRQAPGQGLEWMGWLSAYSGNTIYAQKLQGRVTMTTDTSTTTAYMELRSLRSDDTAVYYCARDRIVVRPDYFDYWGQGTLVTVSSASTKGPSVFPLAPSSKSTSGGTAALGCLVKDYFPEPVTVSWNSGALTSGVHTFPAVLQSSGLYSLSSVVTVPSSSLGTQTYICNVNHKPSNTKVDKRVEPKSCDKTHTCPPCPAPEFEGGPSVFLFPPKPKDTLMISRTPEVTCVVVDVSHEDPEVKFNWYVDGVEVHNAKTKPREEQYNSTYRVVSVLTVLHQDWLNGKEYKCKVSNKALPASIEKTISKAKGQPREPQVYTLPPSREEMTKNQVSLTCLVKGFYPSDIAVEWESNGQPENNYKTTPPVLDSDGSFFLYSRLTVDKSRWQQGNVFSCSVMHEALHNHYTQKSLSLSPGK VL: EIVLTQSPATLSLSPGERATLSCRASQSVSSYLAWYQQKPGQAPRLLIYDASNRATGIPARFSGSGSGTDFTLTISSLEPEDFAVYYCQQRSNWPRTFGQGTKVEIK |
| binds | IgG1-HER2-… (IgG1-HER2-169-K409R with L234F/L235E/D265A/N297Q/P331S) (antibody, IgG1, K409R) heavy: QVQLVQSGAEVKKPGASVKVSCKASGYTFTNYGISWVRQAPGQGLEWMGWLSAYSGNTIYAQKLQGRVTMTTDTSTTTAYMELRSLRSDDTAVYYCARDRIVVRPDYFDYWGQGTLVTVSSASTKGPSVFPLAPSSKSTSGGTAALGCLVKDYFPEPVTVSWNSGALTSGVHTFPAVLQSSGLYSLSSVVTVPSSSLGTQTYICNVNHKPSNTKVDKRVEPKSCDKTHTCPPCPAPEFEGGPSVFLFPPKPKDTLMISRTPEVTCVVVAVSHEDPEVKFNWYVDGVEVHNAKTKPREEQYQSTYRVVSVLTVLHQDWLNGKEYKCKVSNKALPASIEKTISKAKGQPREPQVYTLPPSREEMTKNQVSLTCLVKGFYPSDIAVEWESNGQPENNYKTTPPVLDSDGSFFLYSRLTVDKSRWQQGNVFSCSVMHEALHNHYTQKSLSLSPGK VL: EIVLTQSPATLSLSPGERATLSCRASQSVSSYLAWYQQKPGQAPRLLIYDASNRATGIPARFSGSGSGTDFTLTISSLEPEDFAVYYCQQRSNWPRTFGQGTKVEIK |
| binds | IgG1-HER2-LALA (IgG1-HER2-169-K409R with L234A/L235A) (antibody, IgG1, K409R) heavy: QVQLVQSGAEVKKPGASVKVSCKASGYTFTNYGISWVRQAPGQGLEWMGWLSAYSGNTIYAQKLQGRVTMTTDTSTTTAYMELRSLRSDDTAVYYCARDRIVVRPDYFDYWGQGTLVTVSSASTKGPSVFPLAPSSKSTSGGTAALGCLVKDYFPEPVTVSWNSGALTSGVHTFPAVLQSSGLYSLSSVVTVPSSSLGTQTYICNVNHKPSNTKVDKRVEPKSCDKTHTCPPCPAPEAAGGPSVFLFPPKPKDTLMISRTPEVTCVVVDVSHEDPEVKFNWYVDGVEVHNAKTKPREEQYNSTYRVVSVLTVLHQDWLNGKEYKCKVSNKALPAPIEKTISKAKGQPREPQVYTLPPSREEMTKNQVSLTCLVKGFYPSDIAVEWESNGQPENNYKTTPPVLDSDGSFFLYSRLTVDKSRWQQGNVFSCSVMHEALHNHYTQKSLSLSPGK VL: EIVLTQSPATLSLSPGERATLSCRASQSVSSYLAWYQQKPGQAPRLLIYDASNRATGIPARFSGSGSGTDFTLTISSLEPEDFAVYYCQQRSNWPRTFGQGTKVEIK |

Target: T2, C1q (from 3% pooled human serum) (human, UniProt P02745 23-245; P02746 28-253; P02747 29-245)
T2 construct: Native C1q of pooled human serum, detected with rabbit anti-human C1q
Test: ELISA, antibody coated, 3% pooled human serum, anti-C1q detection
Experimental: Plates were washed and blocked with PBS supplemented with 0.025% Tween 20 and 0.1% gelatine. […] Detection was performed by addition of 1 mg/mL 2,2′-azino-bis(3-ethylbenzothiazoline-6-sulfonic acid) (ABTS; Roche, Mannheim, Germany) for about 30 min. The reaction was stopped by the addition of 100 μL 2% oxalic acid. Absorbance was measured at 405 nm in a microplate reader (Biotek, Winooski, Vt.). Log transformed data were analyzed by fitting sigmoidal dose-response curves with variable slope using GraphPad Prism software.

| binding result | Binder |
| --- | --- |
| binds | IgG1-CD3 (IgG1-huCLB-T3/4-F405L), wild-type Fc (antibody, also called wild-type IgG1-CD3; IgG1-huCLB-3/4) heavy: not shown VL: EIVLTQSPATLSLSPGERATLSCSASSSVTYVHWYQQKPGQAPRLLIYDTSKLASGIPARFSGSGSGTDFTLTISSLEPEDFAVYYCFQGSGYPLTFGSGTKLEMR |
